From publication doi:10.1101/2022.07.12.499507 (bioRxiv, 2022)

B1: Epl1 (natural protein)
chain: MPTPSNAIEINDGSHKSGRSTRRSGSRSAHDDGLDSFSKGDSGAGASAGSSNSRFRHRKISVKQHLKIYLPNDLKHLDKDELQQREVVEIETGVEKNEEKEVHLHRILQMGSGHTKHKDYIPTPDASMTWNEYDKFYTGSFQETTSYIKFSATVEDCCGTNYNMDERDETFLNEQVNKGSSDILTEDEFEILCSSFEHAIHERQPFLSMDPESILSFEELKPTLIKSDMADFNLRNQLNHEINSHKTHFITQFDPVSQMNTRPLIQLIEKFGSKIYDYWRERKIEVNGYEIFPQLKFERPGEKEEIDPYVCFRRREVRHPRKTRRIDILNSQRLRALHQELKNAKDLALLVAKRENVSLNWINDELKIFDQRVKIKNLKRSLNISGEDDDLINHKRKRPTIVTVEQREAELRKAELKRAAAAAAAAKAKNNKRNNQLEDKSSRLTKQQQQQLLQQQQQQQQNALKTENGKQLANASSSSTSQPITSHVYVKLPSSKIPDIVLEDVDALLNSKEKNARKFVQEKMEKRKIEDADVFFNLTDDPFNPVFDMSLPKNFSTSNVPFASIASSKFQIDRSFYSSHLPEYLKGISDDIRIYDSNGRSRNKDNYNLDTKRIKKTELYDPFQENLEIHSREYPIKFRKRVGRSNIKYVDRMPNFTTSSTKSACSLMDFVDFDSIEKEQYSREGSNDTDSINVYDSKYDEFVRLYDKWKYDSPQNEYGIKFSDEPARLNQISNDTQVIRFGTMLGTKSYEQLREATIKYRRDYITRLKQKHIQHLQQQQQQQQQQQQQAQQQKQKSQNNNSNSSNSLKKLNDSLINSEAKQNSSITQKNSS
B2: Eaf3 (natural protein)
chain: MVDLEQEFALGGRCLAFHGPLMYEAKILKIWDPSSKMYTSIPNDKPGGSSQATKEIKPQKLGEDESIPEEIINGKCFFIHYQGWKSSWDEWVGYDRIRAYNEENIAMKKRLANEAKEAKKSLLEQQKKKKLSTSLGGPSNGGKRKGDSRSNASISKSTSQSFLTSSVSGRKSGRSSANSLHPGSSLRSSSDQNGNDDRRRSSSLSPNMLHHIAGYPTPKISLQIPIKLKSVLVDDWEYVTKDKKICRLPADVTVEMVLNKYEHEVSQELESPGSQSQLSEYCAGLKLYFDKCLGNMLLYRLERLQYDELLKKSSKDQKPLVPIRIYGAIHLLRLISVLPELISSTTMDLQSCQLLIKQTEDFLVWLLMHVDEYFNDKDPNRSDDALYVNTSSQYEGVALGM
B3: Eaf2 (natural protein)
chain: MSSSDIFDVLNIKQKSRSPTNGQVSVPSSSAANRPKPQVTGMQRELFNLLGENQPPVVIKSGNNFKEKMLSTSKPSPWSFVEFKANNSVTLRHWVKGSKELIGDTPKESPYSKFNQHLSIPSFTKEEYEAFMNENEGTQKSVESEKNHNENFTNEKKDESKNSWSFEEIEYLFNLCKKYDLRWFLIFDRYSYNNSRTLEDLKEKFYYTCRNYFKASDPSNPLLSSLNFSAEKEIERKKYLQRLLSRSAAEIAEEEALVVESKKFEMAAKRTLAERESLLRLLDSPHSDQTITQYLTSQGMSQLYNALLADKTRKRKHDLNIPENPWMKQQQQFAQHRQLQQLNVKKSEVKENLSPKKTKRQRQEMQTALKRKSESAYAEQLLKDFNSDERKALGVITHGEKLSPGVYLRSTKLSTFKPALQNKILAILQELSLPSRPVMPSFDVMERQEELLKKINTLIDLKKHVDKYEAGMSITK
B4: Yaf9 (natural protein)
chain: MAPTISKRIKTLSVSRPIIYGNTAKKMGSVKPPNAPAEHTHLWTIFVRGPQNEDISYFIKKVVFKLHDTYPNPVRSIEAPPFELTETGWGEFDINIKVYFVEEANEKVLNFYHRLRLHPYANPVPNSDNGNEQNTTDHNSKDAEVSSVYFDEIVFNEPNEEFFKILMSRPGNLLPSNKTDDCVYSKQLEQEEIDRIEIGIEKVDKEIDELKQKLENLVKQEAINGS
B5: Eaf6 (natural protein)
chain: MTDELKSYEALKAELKKSLQDRREQEDTFDNLQQEIYDKETEYFSHNSNNNHSGHGGAHGSKSHYSGNIIKGFDTFSKSHHSHADSAFNNNDRIFSLSSATYVKQQHGQSQND

Experiments:
Eaf1 = target: T1, Eaf1 (Saccharomyces cerevisiae, UniProt Q06337 1-982); experiment: cryo-EM structure
T1 sequence: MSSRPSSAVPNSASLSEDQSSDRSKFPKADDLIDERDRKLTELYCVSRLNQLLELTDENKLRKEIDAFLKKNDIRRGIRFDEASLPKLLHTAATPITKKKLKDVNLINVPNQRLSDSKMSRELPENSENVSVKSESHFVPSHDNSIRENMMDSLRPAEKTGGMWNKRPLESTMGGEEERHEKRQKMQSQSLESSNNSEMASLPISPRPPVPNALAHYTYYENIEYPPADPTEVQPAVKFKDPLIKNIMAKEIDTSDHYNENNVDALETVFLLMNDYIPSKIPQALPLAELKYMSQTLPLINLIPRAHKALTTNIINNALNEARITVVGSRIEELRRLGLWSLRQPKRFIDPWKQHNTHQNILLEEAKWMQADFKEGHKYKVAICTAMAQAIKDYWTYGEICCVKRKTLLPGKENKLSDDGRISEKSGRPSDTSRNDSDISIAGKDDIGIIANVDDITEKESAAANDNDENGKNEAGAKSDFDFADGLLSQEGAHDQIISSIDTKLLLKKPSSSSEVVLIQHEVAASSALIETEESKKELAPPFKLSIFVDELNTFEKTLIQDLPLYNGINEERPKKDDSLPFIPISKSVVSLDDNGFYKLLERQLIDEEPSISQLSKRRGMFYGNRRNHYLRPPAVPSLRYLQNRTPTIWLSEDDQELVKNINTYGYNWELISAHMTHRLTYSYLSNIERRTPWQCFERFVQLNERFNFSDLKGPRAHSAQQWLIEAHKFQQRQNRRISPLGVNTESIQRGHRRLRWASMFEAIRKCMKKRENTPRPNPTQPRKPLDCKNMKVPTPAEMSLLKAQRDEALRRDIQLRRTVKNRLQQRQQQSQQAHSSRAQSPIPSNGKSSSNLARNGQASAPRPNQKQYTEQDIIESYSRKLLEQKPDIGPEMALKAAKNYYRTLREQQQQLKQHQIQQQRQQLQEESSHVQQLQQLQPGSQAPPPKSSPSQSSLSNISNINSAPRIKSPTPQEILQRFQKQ

Epl1 [1] = target: B1; experiment: cross-linking
Eaf2 = target: B3; experiment: cross-linking
Epl1 [2] = target: B1; experiment: cryo-EM structure
Yng2 = target: T2, Yng2 (Saccharomyces cerevisiae, UniProt P38806 1-282); experiment: cryo-EM structure
T2 sequence: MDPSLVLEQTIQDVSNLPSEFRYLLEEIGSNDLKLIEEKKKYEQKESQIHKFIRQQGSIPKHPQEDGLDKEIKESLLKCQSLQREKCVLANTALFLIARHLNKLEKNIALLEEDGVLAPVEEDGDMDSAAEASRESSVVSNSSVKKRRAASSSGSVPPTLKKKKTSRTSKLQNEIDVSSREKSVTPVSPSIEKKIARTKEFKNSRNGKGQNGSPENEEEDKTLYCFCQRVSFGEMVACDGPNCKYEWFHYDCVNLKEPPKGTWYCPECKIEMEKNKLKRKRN

B1: binds (Eaf1).

B2: binds (Epl1 [1]).

B3: binds (Eaf1).

B4: binds (Eaf2).

B5: binds (Epl1 [2]); binds (Yng2).
